Reference: patent US20020032314A1
Ends that are not written are not given here. * marks the point of attachment. 125I = [125I]*

Biological target: NTP receptor on human neutrophils (human)
Experiment: saturation curve and Scatchard-like analysis of 125I-NTP-Y binding to human neutrophils

B1: 125I-labeled NTP-Y (human Neutrophil Targeting Peptide synthesized with an N-terminal tyrosine) (peptide)
peptide: Y(125I)RRPESKATNATLDPR
For B1, which NTP receptors per cell (receptors per cell) is on record?
The NTP receptors per cell (receptors per cell) was 3000.
